In the experiment the target is VEGF (human) (UniProt P15692). Description: VEGF blocking assay (luminescence).

1 substance from patent US20240279324A1 can be followed below.

As a reminder, the IC50 is the concentration that gives 50% inhibition.

VEGF (human), sequence (P15692 other isoform, or with tags, fused parts or gaps): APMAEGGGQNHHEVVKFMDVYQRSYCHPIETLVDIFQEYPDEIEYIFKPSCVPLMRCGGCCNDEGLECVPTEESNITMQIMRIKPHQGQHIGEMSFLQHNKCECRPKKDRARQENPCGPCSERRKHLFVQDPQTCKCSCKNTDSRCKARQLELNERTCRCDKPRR

Substance Avastin gave an IC50 of 0.107 nM.
